Experimental data published in article doi:10.1101/2025.04.14.648677 (bioRxiv, 2025).
Each block holds one molecule with its values, some of them ahead of it.

Tests used:
[1] = molecular target: IRE1β_LD, wildtype (analytical SEC) (not stated (human numbering used; mouse IRE1β_LD used in cells)); test: SEC
AUC = molecular target: the molecule itself; test: AUC
SEC-SAXS = molecular target: the molecule itself; test: SEC-SAXS
[2] = molecular target: T1, AGR2 H117Y (not stated (human or mouse AGR2 made)), O95994; test: SEC; settings: remark: other sources report otherwise
T1 chain: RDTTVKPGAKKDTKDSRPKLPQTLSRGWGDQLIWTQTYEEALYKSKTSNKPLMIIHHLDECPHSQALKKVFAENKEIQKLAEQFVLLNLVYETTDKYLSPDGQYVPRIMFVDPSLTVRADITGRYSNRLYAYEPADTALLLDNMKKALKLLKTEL

B1: mouse AGR2 (residues 21-175), AUC (natural protein, UniProt O88312 21-175, looked up)
chain: KDTTVKSGAKKDPKDSRPKLPQTLSRGWGDQLIWTQTYEEALYRSKTSNRPLMVIHHLDECPHSQALKKVFAEHKEIQKLAEQFVLLNLVYETTDKHLSPDGQYVPRIVFVDPSLTVRADITGRYSNRLYAYEPSDTALLYDNMKKALKLLKTEL
binding result (AUC): binds

B2: Human AGR2^41-171 (domain or fragment, UniProt O95994 41-171, looked up)
chain: PQTLSRGWGDQLIWTQTYEEALYKSKTSNKPLMIIHHLDECPHSQALKKVFAENKEIQKLAEQFVLLNLVYETTDKHLSPDGQYVPRIMFVDPSLTVRADITGRYSNRLYAYEPADTALLLDNMKKALKLL
stoichiometry N (SEC-SAXS): 2

The remaining lines, values ahead:

stoichiometry N [1]: 2
Molecule: IRE1β_LD, wildtype (analytical SEC) (domain or fragment)

stoichiometry N [2]: 2
B3: AGR2 H117Y, O95994 21-175 (natural protein)
chain: RDTTVKPGAKKDTKDSRPKLPQTLSRGWGDQLIWTQTYEEALYKSKTSNKPLMIIHHLDECPHSQALKKVFAENKEIQKLAEQFVLLNLVYETTDKYLSPDGQYVPRIMFVDPSLTVRADITGRYSNRLYAYEPADTALLLDNMKKALKLLKTEL
